{"source": "patent US20110263459", "about": "“DIRECT SELECTION OF STRUCTURALLY DEFINED APTAMERS” (published 2011)", "key": {"[1]": {"biological_target": "HIV-1 nucleocapsid protein NCp7 (HIV-1) (UniProt P03349)", "conditions": "Cy3-NCp7 microarray; 3.5x background (AUA)"}, "[2]": {"biological_target": "T1, HIV-1 nucleocapsid protein NCp7 (HIV-1, UniProt P03349 P03349:380-434)", "experiment": "Trp37 fluorescence quenching, PBS, 5 mM MgCl2, 25 C; negative on chip", "conditions": "tags: unlabelled for Trp titration; Cy3/Dylight-labelled for chips; made in house, >95% pure; hairpin"}, "[3]": {"biological_target": "T1, HIV-1 nucleocapsid protein NCp7", "experiment": "multiple NCp7 bound per TBA in Trp37 titration; positive on chip", "conditions": "tags: unlabelled for Trp titration; Cy3/Dylight-labelled for chips; made in house, >95% pure; G4"}, "[4]": {"biological_target": "T1, HIV-1 nucleocapsid protein NCp7", "experiment": "Trp37 fluorescence quenching, PBS pH 7.4, 0.1% Tween-20, 5 mM MgCl2, 25 C; 1:1", "conditions": "tags: unlabelled for Trp titration; Cy3/Dylight-labelled for chips; made in house, >95% pure; hairpin"}}}
{"molecule": "TGTNNN [N6-56(64) pool]", "values": [{"measurement": "binding signal (fold of GUG control)", "setting": "[1]", "value": 1.5}]}
{"molecule": "GGACUAGCGAUAGCUAGUCC (ssRNA)", "note": "[A control (SL3-AUA)]", "values": [{"measurement": "Kd", "setting": "[2]", "value": 200, "unit": "nM"}]}
{"molecule": "GGTTGGTGTGGTTGG (structured_DNA)", "note": "[control 33 (TBA)]", "values": [{"measurement": "binding result", "setting": "[3]", "value": "binds"}]}
{"molecule": "GGACUAGCGGUGGCUAGUCC (ssRNA)", "note": "[G control (SL3-GUG)]", "values": [{"measurement": "Kd", "setting": "[4]", "value": 10, "unit": "nM"}]}
